Reference: US12679878B2, “CRF2 receptor agonists and their use in therapy” (SANOFI, priority 2020, dated 2026)
Starred links: 1 amine or outer side, 2 acyl side, 3 side chain; linkers in the order of their positions; H or OH if unused. Non-standard residues stand in square brackets, D forms with d. Groups on a side chain read outwards from the residue. No end group written: not given here. *: point of attachment. C18 diacid = O=C(O)CCCCCCCCCCCCCCCCC(=O)*; γGlu = O=C(O)[C@H](CCC(=O)[*:2])N[*:1]; AEEA = NCCOCCOCC(=O)O; Aib = CC(C)(N)C(=O)O

B1: peptide of SEQ ID NO: 43 (peptide)
peptide: IVLSLDVPIKLK([AEEA-AEEA-γGlu-C18 diacid])QILLEQAKQKKLRAQAETNVRILERV-NH2
modifications: N-terminus assumed
SMILES: CC[C@H](C)[C@H](N)C(=O)N[C@H](C(=O)N[C@@H](CC(C)C)C(=O)N[C@@H](CO)C(=O)N[C@@H](CC(C)C)C(=O)N[C@@H](CC(=O)O)C(=O)N[C@H](C(=O)N1CCC[C@H]1C(=O)N[C@H](C(=O)N[C@@H](CCCCN)C(=O)N[C@@H](CC(C)C)C(=O)N[C@@H](CCCCNC(=O)COCCOCCNC(=O)COCCOCCNC(=O)CC[C@H](NC(=O)CCCCCCCCCCCCCCCCC(=O)O)C(=O)O)C(=O)N[C@@H](CCC(N)=O)C(=O)N[C@H](C(=O)N[C@@H](CC(C)C)C(=O)N[C@@H](CC(C)C)C(=O)N[C@@H](CCC(=O)O)C(=O)N[C@@H](CCC(N)=O)C(=O)N[C@@H](C)C(=O)N[C@@H](CCCCN)C(=O)N[C@@H](CCC(N)=O)C(=O)N[C@@H](CCCCN)C(=O)N[C@@H](CCCCN)C(=O)N[C@@H](CC(C)C)C(=O)N[C@@H](CCCNC(=N)N)C(=O)N[C@@H](C)C(=O)N[C@@H](CCC(N)=O)C(=O)N[C@@H](C)C(=O)N[C@@H](CCC(=O)O)C(=O)N[C@H](C(=O)N[C@@H](CC(N)=O)C(=O)N[C@H](C(=O)N[C@@H](CCCNC(=N)N)C(=O)N[C@H](C(=O)N[C@@H](CC(C)C)C(=O)N[C@@H](CCC(=O)O)C(=O)N[C@@H](CCCNC(=N)N)C(=O)N[C@H](C(N)=O)C(C)C)[C@@H](C)CC)C(C)C)[C@@H](C)O)[C@@H](C)CC)[C@@H](C)CC)C(C)C)C(C)C
B2: peptide of SEQ ID NO: 140 (peptide)
peptide: IVLSLD[dV]PIKLK([AEEA-AEEA-γGlu-C18 diacid])QILLEQARQK[Aib]QRAQAEKNKRILERV-NH2
modifications: N-terminus assumed
SMILES: CC[C@H](C)[C@H](N)C(=O)N[C@H](C(=O)N[C@@H](CC(C)C)C(=O)N[C@@H](CO)C(=O)N[C@@H](CC(C)C)C(=O)N[C@@H](CC(=O)O)C(=O)N[C@@H](C(=O)N1CCC[C@H]1C(=O)N[C@H](C(=O)N[C@@H](CCCCN)C(=O)N[C@@H](CC(C)C)C(=O)N[C@@H](CCCCNC(=O)COCCOCCNC(=O)COCCOCCNC(=O)CC[C@H](NC(=O)CCCCCCCCCCCCCCCCC(=O)O)C(=O)O)C(=O)N[C@@H](CCC(N)=O)C(=O)N[C@H](C(=O)N[C@@H](CC(C)C)C(=O)N[C@@H](CC(C)C)C(=O)N[C@@H](CCC(=O)O)C(=O)N[C@@H](CCC(N)=O)C(=O)N[C@@H](C)C(=O)N[C@@H](CCCNC(=N)N)C(=O)N[C@@H](CCC(N)=O)C(=O)N[C@@H](CCCCN)C(=O)NC(C)(C)C(=O)N[C@@H](CCC(N)=O)C(=O)N[C@@H](CCCNC(=N)N)C(=O)N[C@@H](C)C(=O)N[C@@H](CCC(N)=O)C(=O)N[C@@H](C)C(=O)N[C@@H](CCC(=O)O)C(=O)N[C@@H](CCCCN)C(=O)N[C@@H](CC(N)=O)C(=O)N[C@@H](CCCCN)C(=O)N[C@@H](CCCNC(=N)N)C(=O)N[C@H](C(=O)N[C@@H](CC(C)C)C(=O)N[C@@H](CCC(=O)O)C(=O)N[C@@H](CCCNC(=N)N)C(=O)N[C@H](C(N)=O)C(C)C)[C@@H](C)CC)[C@@H](C)CC)[C@@H](C)CC)C(C)C)C(C)C
B3: peptide of SEQ ID NO: 45 (peptide)
peptide: IVLSLDVPIKLK([AEEA-AEEA-γGlu-C18 diacid])QILLEQAKQK[Aib]LKAQAETNVRILERV-NH2
modifications: N-terminus assumed
SMILES: CC[C@H](C)[C@H](N)C(=O)N[C@H](C(=O)N[C@@H](CC(C)C)C(=O)N[C@@H](CO)C(=O)N[C@@H](CC(C)C)C(=O)N[C@@H](CC(=O)O)C(=O)N[C@H](C(=O)N1CCC[C@H]1C(=O)N[C@H](C(=O)N[C@@H](CCCCN)C(=O)N[C@@H](CC(C)C)C(=O)N[C@@H](CCCCNC(=O)COCCOCCNC(=O)COCCOCCNC(=O)CC[C@H](NC(=O)CCCCCCCCCCCCCCCCC(=O)O)C(=O)O)C(=O)N[C@@H](CCC(N)=O)C(=O)N[C@H](C(=O)N[C@@H](CC(C)C)C(=O)N[C@@H](CC(C)C)C(=O)N[C@@H](CCC(=O)O)C(=O)N[C@@H](CCC(N)=O)C(=O)N[C@@H](C)C(=O)N[C@@H](CCCCN)C(=O)N[C@@H](CCC(N)=O)C(=O)N[C@@H](CCCCN)C(=O)NC(C)(C)C(=O)N[C@@H](CC(C)C)C(=O)N[C@@H](CCCCN)C(=O)N[C@@H](C)C(=O)N[C@@H](CCC(N)=O)C(=O)N[C@@H](C)C(=O)N[C@@H](CCC(=O)O)C(=O)N[C@H](C(=O)N[C@@H](CC(N)=O)C(=O)N[C@H](C(=O)N[C@@H](CCCNC(=N)N)C(=O)N[C@H](C(=O)N[C@@H](CC(C)C)C(=O)N[C@@H](CCC(=O)O)C(=O)N[C@@H](CCCNC(=N)N)C(=O)N[C@H](C(N)=O)C(C)C)[C@@H](C)CC)C(C)C)[C@@H](C)O)[C@@H](C)CC)[C@@H](C)CC)C(C)C)C(C)C
B4: peptide of SEQ ID NO: 142 (peptide)
peptide: IVLSLD[dV]PIKLK([AEEA-AEEA-γGlu-C18 diacid])QILLEQARQK[Aib]QREQAEKNKRILERV-NH2
modifications: N-terminus assumed
SMILES: CC[C@H](C)[C@H](N)C(=O)N[C@H](C(=O)N[C@@H](CC(C)C)C(=O)N[C@@H](CO)C(=O)N[C@@H](CC(C)C)C(=O)N[C@@H](CC(=O)O)C(=O)N[C@@H](C(=O)N1CCC[C@H]1C(=O)N[C@H](C(=O)N[C@@H](CCCCN)C(=O)N[C@@H](CC(C)C)C(=O)N[C@@H](CCCCNC(=O)COCCOCCNC(=O)COCCOCCNC(=O)CC[C@H](NC(=O)CCCCCCCCCCCCCCCCC(=O)O)C(=O)O)C(=O)N[C@@H](CCC(N)=O)C(=O)N[C@H](C(=O)N[C@@H](CC(C)C)C(=O)N[C@@H](CC(C)C)C(=O)N[C@@H](CCC(=O)O)C(=O)N[C@@H](CCC(N)=O)C(=O)N[C@@H](C)C(=O)N[C@@H](CCCNC(=N)N)C(=O)N[C@@H](CCC(N)=O)C(=O)N[C@@H](CCCCN)C(=O)NC(C)(C)C(=O)N[C@@H](CCC(N)=O)C(=O)N[C@@H](CCCNC(=N)N)C(=O)N[C@@H](CCC(=O)O)C(=O)N[C@@H](CCC(N)=O)C(=O)N[C@@H](C)C(=O)N[C@@H](CCC(=O)O)C(=O)N[C@@H](CCCCN)C(=O)N[C@@H](CC(N)=O)C(=O)N[C@@H](CCCCN)C(=O)N[C@@H](CCCNC(=N)N)C(=O)N[C@H](C(=O)N[C@@H](CC(C)C)C(=O)N[C@@H](CCC(=O)O)C(=O)N[C@@H](CCCNC(=N)N)C(=O)N[C@H](C(N)=O)C(C)C)[C@@H](C)CC)[C@@H](C)CC)[C@@H](C)CC)C(C)C)C(C)C
B5: peptide of SEQ ID NO: 131 (peptide)
peptide: IVLSLD[dV]PIKLK([AEEA-AEEA-γGlu-C18 diacid])QILLEQERQK[Aib]QRQQAEKNKQILAQV-NH2
modifications: N-terminus assumed
SMILES: CC[C@H](C)[C@H](N)C(=O)N[C@H](C(=O)N[C@@H](CC(C)C)C(=O)N[C@@H](CO)C(=O)N[C@@H](CC(C)C)C(=O)N[C@@H](CC(=O)O)C(=O)N[C@@H](C(=O)N1CCC[C@H]1C(=O)N[C@H](C(=O)N[C@@H](CCCCN)C(=O)N[C@@H](CC(C)C)C(=O)N[C@@H](CCCCNC(=O)COCCOCCNC(=O)COCCOCCNC(=O)CC[C@H](NC(=O)CCCCCCCCCCCCCCCCC(=O)O)C(=O)O)C(=O)N[C@@H](CCC(N)=O)C(=O)N[C@H](C(=O)N[C@@H](CC(C)C)C(=O)N[C@@H](CC(C)C)C(=O)N[C@@H](CCC(=O)O)C(=O)N[C@@H](CCC(N)=O)C(=O)N[C@@H](CCC(=O)O)C(=O)N[C@@H](CCCNC(=N)N)C(=O)N[C@@H](CCC(N)=O)C(=O)N[C@@H](CCCCN)C(=O)NC(C)(C)C(=O)N[C@@H](CCC(N)=O)C(=O)N[C@@H](CCCNC(=N)N)C(=O)N[C@@H](CCC(N)=O)C(=O)N[C@@H](CCC(N)=O)C(=O)N[C@@H](C)C(=O)N[C@@H](CCC(=O)O)C(=O)N[C@@H](CCCCN)C(=O)N[C@@H](CC(N)=O)C(=O)N[C@@H](CCCCN)C(=O)N[C@@H](CCC(N)=O)C(=O)N[C@H](C(=O)N[C@@H](CC(C)C)C(=O)N[C@@H](C)C(=O)N[C@@H](CCC(N)=O)C(=O)N[C@H](C(N)=O)C(C)C)[C@@H](C)CC)[C@@H](C)CC)[C@@H](C)CC)C(C)C)C(C)C
B6: peptide of SEQ ID NO: 36 (peptide)
peptide: IVLSLD[dV]PTKLK([AEEA-AEEA-γGlu-C18 diacid])QKLLKQERQRK[Aib]REQAEKNKRILERV-NH2
modifications: N-terminus assumed
SMILES: CC[C@H](C)[C@H](N)C(=O)N[C@H](C(=O)N[C@@H](CC(C)C)C(=O)N[C@@H](CO)C(=O)N[C@@H](CC(C)C)C(=O)N[C@@H](CC(=O)O)C(=O)N[C@@H](C(=O)N1CCC[C@H]1C(=O)N[C@H](C(=O)N[C@@H](CCCCN)C(=O)N[C@@H](CC(C)C)C(=O)N[C@@H](CCCCNC(=O)COCCOCCNC(=O)COCCOCCNC(=O)CC[C@H](NC(=O)CCCCCCCCCCCCCCCCC(=O)O)C(=O)O)C(=O)N[C@@H](CCC(N)=O)C(=O)N[C@@H](CCCCN)C(=O)N[C@@H](CC(C)C)C(=O)N[C@@H](CC(C)C)C(=O)N[C@@H](CCCCN)C(=O)N[C@@H](CCC(N)=O)C(=O)N[C@@H](CCC(=O)O)C(=O)N[C@@H](CCCNC(=N)N)C(=O)N[C@@H](CCC(N)=O)C(=O)N[C@@H](CCCNC(=N)N)C(=O)N[C@@H](CCCCN)C(=O)NC(C)(C)C(=O)N[C@@H](CCCNC(=N)N)C(=O)N[C@@H](CCC(=O)O)C(=O)N[C@@H](CCC(N)=O)C(=O)N[C@@H](C)C(=O)N[C@@H](CCC(=O)O)C(=O)N[C@@H](CCCCN)C(=O)N[C@@H](CC(N)=O)C(=O)N[C@@H](CCCCN)C(=O)N[C@@H](CCCNC(=N)N)C(=O)N[C@H](C(=O)N[C@@H](CC(C)C)C(=O)N[C@@H](CCC(=O)O)C(=O)N[C@@H](CCCNC(=N)N)C(=O)N[C@H](C(N)=O)C(C)C)[C@@H](C)CC)[C@@H](C)O)C(C)C)C(C)C

Biological target: rat CRF2R α receptor (rat, UniProt P47866 20-411)
Assay: cell-based or functional assay

Sequence of rat CRF2R α receptor (P47866 20-411): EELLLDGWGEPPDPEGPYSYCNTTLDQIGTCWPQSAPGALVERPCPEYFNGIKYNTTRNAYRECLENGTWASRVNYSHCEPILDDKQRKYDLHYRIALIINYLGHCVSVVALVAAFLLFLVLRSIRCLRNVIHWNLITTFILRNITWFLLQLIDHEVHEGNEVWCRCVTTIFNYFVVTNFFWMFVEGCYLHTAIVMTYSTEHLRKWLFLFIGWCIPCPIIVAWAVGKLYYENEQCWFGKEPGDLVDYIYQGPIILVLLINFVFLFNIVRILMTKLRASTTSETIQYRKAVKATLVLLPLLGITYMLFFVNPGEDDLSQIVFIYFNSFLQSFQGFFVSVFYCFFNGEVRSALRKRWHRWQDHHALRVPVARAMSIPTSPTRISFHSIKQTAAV

Row | Binder | EC50 [nM], 0% HSA (cAMP, A7R5 cells)
1 | B1 | 11.5 nM
2 | B2 | 0.1 nM
3 | B3 | 47.3 nM
4 | B4 | 0.2 nM
5 | B5 | 0.39 nM
6 | B6 | 13.3 nM
